Numbering of substitutions follows the chain as printed. Names may count otherwise.
Tests used:
[1] = tested on: human breast cancer cell lines MDA-MB-134, T-47D, BT-474 and MCF-7; assay: TUNEL assay, apoptosis by DNA fragmentation in breast cancer cell lines; format: cell-based
Experimental: The human breast cancer cell lines MDA-MB-134, T-47D, BT-474 and MCF-7 were obtained from ATCC. These breast cancer cell lines were chosen based on their PRLR levels. The cell line T-47D had the highest PRLR level followed by MDA-MB-134, BT-474, MCF-7 in decreasing order of PRLR levels (Peirce S and Chen W Y., 2001, J. Endocrinol. 171:R1-4).
T-47D cells obtained from ATCC were grown in RPMI 1640 (phenol red free), supplemented with 10% FBS (GIBCO BRL). BT-474 cells were grown in RPMI 1640 medium (phenol red free) supplemented with 10% FBS and ATCC recommended supplements. MCF-7 cells were grown in DMEM medium (phenol red free), supplemented with 10% FBS. The cells were grown at 37° C. in a humid atmosphere in the presence of 5% CO2. The MDA-MB-134 cells were grown in Leibovitz's L-15 medium supplemented with 20% FBS and grown in CO2 free atmosphere. The breast cancer cells were trypsinized (0.02% Trypsin—EDTA) and grown in their respective media (phenol red free) supplemented with 10% CSS (Charcoal stripped serum) for a week. Subsequently the cells were trypsinized again and plated onto an 8 chambered slide system (Lab Tek II) at a confluence of 60-70% per chamber. The next day treatments were performed on the breast cancer cells using their respective media (phenol red free), supplemented with 1% CSS. The MDA-MB-134 VI cells were grown in phenol red containing medium, but with the same serum conditions as the other breast cancer cells.
(§1) Terminal deoxynucleotidyl transferase mediated dUTP nick end labeling (TUNEL) assay. Nicks of the fragmented DNA are labeled at their 3-OH ends. The fluorescein-labeled dUTP is incorporated at the 3-OH ends by using the enzyme terminal deoxynucleotidyl transferase. After the assigned period of treatment the chambers were dismantled as per the manufacturer's instructions and the TUNEL assay (Apoptosis detection system, Fluorescein-Promega) was performed as per the manufacturer's instructions. The slide was examined under a FITC filter using an Olympus IX 70 microscope system.

T47D cells = assay: Cell proliferation assay (cell counting), comparison with estrogen and tamoxifen; format: cell-based, human
Experimental: Cell proliferation assays. hPRLA was tested for its ability to inhibit breast cancer cell proliferation in tissue culture. The human breast cancer cells were grown in corresponding culture media according to ATCC recommendations. Cells were maintained at 37° C. in a humidified atmosphere of 5% CO2 in air. The assay conditions were essentially as described by Ginsburg and Vonderharr (Cancer Res., 55:2591-2595 (1995)). For individual growth experiments, cells were plated in 12 well culture plates at a density of approximately 2×10^4/ml, 1 ml/well. Cells were then allowed to attach for one day (T-47D, MCF-7, HTB19, and HTB20 cells, except for HTB 123, which is a suspension cells), then the overlying media was removed and changed to serum-free conditions with media containing ITS (insulin-transferring-selenium-BSA-linoleic acid culture supplement; Collaborative Research Bedford, Mass.). Varying concentrations of hPRL alone or in combination with hPRLA were introduced. After an additional three days in culture, cells were harvested after brief trypsinization and counted in a cell counter.
For certain experiments, a mixed cell culture assay was used. In this assay, breast cancer cells were co-cultured with expressor cells which had been transfected with nucleic acid encoding PRL or a PRL variant and expressing those recombinant proteins. By varying the number of expressor cells, the amount of PRL or PRL variant present in the mixed cell culture was increased or decreased. A fixed number of breast cancer cells (T47D) were added to wells of a multi-well cell culture plate. In certain wells, which served as a control, no expresser cells were added. Then, increasing numbers of expresser cells (transfected L cells expressing either HPRL (L-PRL) or hPRLA (L-PRLA)) were added to breast cancer cell-containing wells to create mixed cultures. The same numbers of expressor cells were cultured in parallel (without T47D cells) to serve as controls. After culturing under standard conditions for a period of time, the number of cells present in the wells was counted, and the number of L cells in the corresponding control culture was subtracted. The resulting number could then be compared to the number of T47D cells in the T47D control culture to evaluate the effects of the recombinant product on breast cancer cell proliferation.

[2] = in vivo
T-47D cells = assay: Cell proliferation, ViaCount reagent and Guava PCA cytometer (viable cells); format: cell-based, human; details: 24 hours of treatment, G129R 1 μg/ml, HERCEPTIN 20 μg/ml (FIG. 3)
Experimental: FIG. 3. […] The y-axis represents percent viable cells after each treatment.
This assay permits the determination of the number of total and viable cells in cultures. Cell proliferation was determined as a measure of the number of viable cells after 24 hours of treatment (FIG. 3).

[3] = Preclinical safety in animals; format: in vivo; details: mice and rabbits, even at high doses
Excerpt: Previously, the inventors developed a hPRLR antagonist, G129R. G129R is prolactin with a single amino acid substation; the glycine at position 129 of the native sequence is replaced with an arginine. G129R has anti-tumor effects in cultured human breast cancer cells and in nude mouse models.

HER2 = HER2 phosphorylation, immunoprecipitation and Western blot (Example 11); format: cell-based, human; details: multiple breast cancer cells
Excerpt: Human PRL signals via cell surface specific receptors that lead to JAK2/STAT/MAPK activation, which ultimately promotes cell proliferation. Phosphorylation of HER2 protein is a crucial step in the activation of its downstream signaling molecules such as Ras/MAPK cascade.
Immunoprecipitation experiments confirm the role of hPRL and G129R in regulation of phosphorylation of HER2 in multiple breast cancer cell lines. A panel of breast cancer cell lines with different levels of hPRLR and HER2 are treated with different doses of PRL (from ng/ml to ug/ml to establish a dose response curve) and terminated at the various time points (from 15 min to 24 hr to establish response time course). The optimal stimulatory dose and the response time courses are determined for each cell lines. Anti-HER2 antibody is used to immunoprecipitate HER2 in cell lysates and anti-phospho-HER2 antibody is used (Western blot) to identify the level of phosphorylated Her2 in response to the treatment.

prostate cancer cells = assay: TUNEL assay, apoptosis in prostate cancer cells; format: cell-based; details: two prostate cancer cells, 250 ng, 24 hours
Experimental: as §1
The samples were in duplicate and each sample constituted about 2 million cells.

[4] = tested on: STAT5 phosphorylation in T-47D human breast cancer cells; assay: hPRL induction of tyrosine phosphorylation of STAT5 protein; format: cell-based
Excerpt: Assay of hPRL induction of tyrosine phosphorylation of STAT5 protein. […] Tyrosyl phosphorylation of STAT 5 is a receptor mediated event and is thought to be an important step in ligand-induced signal transduction (Wakao et al., EMBO J., 13:2182-2191 (1994); Kazansky et al., Mol. Endocrinol., 9:1598-1609 (1995); Waxman et al., J. Biol. Chem., 270:13262-13270 (1995)). This assay was used to evaluate the ability of hPRL and hPRLA to inhibit induction of STAT 5 phosphorylation by wild type PRL.
Briefly, human breast cancer cells were plated in 12-well plates. After pre-incubation in serum-free DMEM for 2-3 hours, the cells were exposed to various concentration of hPRL and hPRLA in serum-free DMEM. […]

[5] = tested on: Stat5a/b phosphorylation in T-47D cells; assay: Inhibition of phosphorylation of Stat5a/b, Western blot; format: cell-based, human; details: 48 hours, 10 μg, in the presence of hPRL 100 ng/ml (FIG. 6)
Experimental: FIG. 6. […] T-47D cells were cultured overnight at 60% confluency and were maintained in phenol red-free and serum-free RPMI-1640 for 72 hours before stimulation. […] Lane A is the control cells that are untreated. […] Activation of Stat5 was analyzed by WB with anti-phospho-specific antibodies in 50 μg protein extracts.

CC/C(=C(\c1ccc(O)cc1)c1ccc(OCCN(C)C)cc1)c1ccccc1 [4-OH-Tamoxifen, reference compound]
apoptosis, DNA fragmentation ([1]; T-47D, MCF-7 or BT-474 cells, concentration as high as 1 μM): did not induce apoptosis

CC/C(=C(\c1ccccc1)c1ccc(OCCN(C)C)cc1)c1ccccc1 [tamoxifen, reference compound]
proliferation of T47D cells relative to untreated control cultures (T47D cells): comparable inhibitory effect

estrogen [reference compound]
proliferation of T47D cells relative to untreated control cultures (T47D cells): increased proliferation

B1: G129R: hPRLR antagonist: prolactin in which the glycine at position 129 of the native sequence is replaced with an arginine (protein)
chain: LPICPGGAARCQVTLRDLFDRAVVLSHYIHNLSSEMFSEFDKRYTHGRGFITKAINSCHTSSLATPEDKEQAQQMNQKDFLSLIVSILRSWNEPLYHLVTEVRGMQEAPEAILSKAVEIEEQTKRLLERMELIVSQVHPETKENEIYPVWSGLPSLQMADEESRLSAYYNLLHCLRRDSHKIDNYLKLLKCRIIHNNNC
half-life [2]: 1 to 2 h
apoptosis, DNA fragmentation ([1]; 250 ng, 24 hours treatment, all four PRLR positive breast cancer cell lines): induced apoptosis
DNA fragmentation in breast cancer cells ([1]; after 2 hours of treatment, 50 ng/ml): apparent
proliferation of T47D cells relative to untreated control cultures (T47D cells): comparable inhibitory effect
decrease in proliferative ability / cell number compared to untreated control cells (T-47D cells): 21.5%
safety in animals [3]: safe
phosphorylation of HER2 (HER2): able to specifically block HER2 phosphorylation
apoptosis detected by TUNEL assay (prostate cancer cells): underwent apoptosis
block of hPRL-induced phosphorylation of STAT5 proteins [4]: able to block the signal transduction induced by hPRL
inhibition of Stat5a/b phosphorylation [5]: inhibitory effect

B2: hPRL: human prolactin, wild type hormone, used as positive control and stimulus (protein)
chain: B1 chain with R129G
proliferation of T47D cells relative to untreated control cultures (T47D cells): increased proliferation
phosphorylation of HER2 (HER2): able to phosphorylate HER2
